Assay results: patent US7842460

How the values were obtained:
[1] = biological target: human SUMO3-PLA2mX fusion, P55854
[2] = biological target: T1, Ubiquitin-PLA2mX fusion, Q9QXX3
T1 chain: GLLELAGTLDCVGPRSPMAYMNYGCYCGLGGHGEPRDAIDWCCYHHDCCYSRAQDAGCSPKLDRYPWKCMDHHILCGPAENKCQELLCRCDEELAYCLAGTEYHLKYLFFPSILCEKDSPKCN

[3] = biological target: human Nedd8-PLA2mX fusion, Q15843
[4] = biological target: T2, Smt3-3Dpol (Mahoney strain) fusion from pET24-6H-SUMO-3Dpol, P03300
T2 chain: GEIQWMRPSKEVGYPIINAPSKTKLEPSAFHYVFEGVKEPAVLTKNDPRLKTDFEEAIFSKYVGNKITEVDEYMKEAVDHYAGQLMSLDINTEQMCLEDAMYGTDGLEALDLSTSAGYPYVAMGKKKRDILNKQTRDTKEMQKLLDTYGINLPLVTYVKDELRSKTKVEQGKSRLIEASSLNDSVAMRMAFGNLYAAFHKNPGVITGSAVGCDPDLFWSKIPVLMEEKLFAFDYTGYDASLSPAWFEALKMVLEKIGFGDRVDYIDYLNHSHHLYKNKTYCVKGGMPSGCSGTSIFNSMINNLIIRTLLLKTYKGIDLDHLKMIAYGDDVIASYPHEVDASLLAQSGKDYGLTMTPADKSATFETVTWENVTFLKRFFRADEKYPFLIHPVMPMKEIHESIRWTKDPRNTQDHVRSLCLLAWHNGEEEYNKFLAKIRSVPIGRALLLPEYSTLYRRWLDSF

[5] = biological target: T3, (yeast SUMO) Smt3-PLA2mX fusion, Q9QXX3
T3 chain: T1 chain

[6] = biological target: Smt3-tryptase (6xHis-SUMO-human tryptase fusion, secreted from Sf9 insect cells) [SUMO: Q12306]
[7] = biological target: T4, SUMO-GPATase fusion protein from pET24-6H-SUMO-GPATase, P0AG16
T4 chain: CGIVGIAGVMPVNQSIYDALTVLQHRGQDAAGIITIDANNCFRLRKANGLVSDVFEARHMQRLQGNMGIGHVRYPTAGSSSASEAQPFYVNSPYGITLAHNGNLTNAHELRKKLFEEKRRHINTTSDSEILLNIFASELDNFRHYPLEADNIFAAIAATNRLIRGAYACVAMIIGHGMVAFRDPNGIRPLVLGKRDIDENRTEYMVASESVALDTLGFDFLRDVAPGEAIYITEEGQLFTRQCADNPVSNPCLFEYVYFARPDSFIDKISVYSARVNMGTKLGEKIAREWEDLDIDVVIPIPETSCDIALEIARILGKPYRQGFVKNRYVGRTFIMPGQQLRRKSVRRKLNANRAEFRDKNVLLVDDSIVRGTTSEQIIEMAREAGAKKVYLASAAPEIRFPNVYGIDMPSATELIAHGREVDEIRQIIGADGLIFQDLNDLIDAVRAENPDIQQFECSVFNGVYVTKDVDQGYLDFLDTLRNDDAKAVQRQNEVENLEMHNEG

human Nedd8-PLA2mX fusion, Q15843, sequence (Q15843 whole entry, looked up, the tested form may be a part): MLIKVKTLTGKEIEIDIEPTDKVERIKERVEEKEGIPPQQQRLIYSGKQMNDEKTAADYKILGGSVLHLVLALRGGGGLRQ
Smt3-tryptase (6xHis-SUMO-human tryptase fusion, secreted from Sf9 insect cells) [SUMO: Q12306], sequence (Q12306 whole entry, looked up, the tested form may be a part): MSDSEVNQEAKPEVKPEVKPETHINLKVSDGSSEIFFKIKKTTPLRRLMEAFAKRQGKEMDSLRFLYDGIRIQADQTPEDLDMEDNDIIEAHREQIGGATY

B1: SENP2 isopeptidase (protein)
chain: DLLELTEDMEKEISNALGHGPQDEILSSAFKLRITRGDIQTLKNYHWLNDEVINFYMNLLVERNKKQGYPALHVFSTFFYPKLKSGGYQAVKRWTKGVNLFEQEIILVPIHRKVHWSLVVIDLRKKCLKYLDSMGQKGHRICEILLQYLQDESKTKRNSDLNLLEWTHHSMKPHEIPQQLNGSDCGMFTCKYADYISRDKPITFTQHQMPLFRKKMVWEILHQQLL
Ratio of PLA2 activity, fusion with isopeptidase over fusion without [1]: 9.95
cleavage of the fusion by SDS-PAGE (10 ug fusion, 1 ug SENP2) [1]: the appropriately sized hSUMO3 (21 kDa) and PLA2mX (14 kDa) bands were observed, indicating complete cleavage of the fusion protein
cleavage of the fusion by SDS-PAGE [2]: The SENP2 enzyme failed to cleave the Ubiqutin-PLA2mX fusion protein

B2: Den1, a Nedd8-specific isopeptidase (protein)
chain: MDPVVLSYMDSLLRQSDVSLLDPPSWLNDHIIGFAFEYFANSQFHDCSDHVSFISPEVTQFIKCTSNPAEIAMFLEPLDLPNKRVVFLAINDNSNQAAGGTHWSLLVYLQDKNSFFHYDSHSRSNSVHAKQVAEKLEAFLGRKGDKLAFVEEKAPAQQNSYDCGMYVICNTEALCQNFFRQQTESLLQLLTPAYITKKRGEWKDLITTLAKK
Ratio of PLA2 activity, fusion with isopeptidase over fusion without [3]: 3.38
cleavage of the fusion by SDS-PAGE [3]: the Nedd8-fusion protein became cleaved and 14 kDa PLA2mX and 9 kDa Nedd8 bands appear

B3: C-terminal His-tagged SUMO protease 1, ULP1 (403-621)p (protein)
chain: LVPELNEKDDDQVQKALASRENTQLMNRDNIEITVRDFKTLAPRRWLNDTIIEFFMKYIEKSTPNTVAFNSFFYTNLSERGYQGVRRWMKRKKTQIDKLDKIFTPINLNQSHWALGIIDLKKKTIGYVDSLSNGPNAMSFAILTDLQKYVMEESKHTIGEDFDLIHLDCPQQPNGYDCGIYVCMNTLYGSADAPLDFDYKDAIRMRRFIAHLILTDALK
cleavage of the fusion by SDS-PAGE and Coomassie Blue staining [4]: resulted in 100% of cleavage of 3Dpol
Ratio of PLA2 activity, fusion with isopeptidase over fusion without [5]: 7.04
cleavage of the fusion by SDS-PAGE (10 ug fusion, 1 ug Ulp-1, one hour) [5]: complete cleavage of the reporter fusion protein to yield the separate constituents, Smt3 (at 21 kDa) and 14 kDa PLA2mX
cleavage of the fusion by SDS-PAGE [2]: The yeast ULP1 enzyme failed to cleave the Ubiquitin-PLA2mX fusion protein
tryptase activity, peptidyl chromogenic substrate, absorption at 410 nm [6]: augmented tryptase activity was measured
GPATase activity by coupled glutamate dehydrogenase assay, absorbance at 363 nm [7]: there was an increase is absorbance at the OD 363 reading ... In the absence of Ulp1, this increase of absorbance did not occur
glutaminase activity of GPATase (coupled GDH assay) [7]: at least a 10-fold increase in the glutaminase activity of GPATase
